The numbers were not newly measured in PMC5141497, which cites them from elsewhere.

Like-named read-outs stand apart in the source and are kept apart here.

In data set [1] the target is Did2 MIM1 (Saccharomyces cerevisiae) (UniProt P69771).
For data set [2] the target is unchanged. This is another data set of the same source.
For data set [3], the target named is Vps2 MIM1 (Saccharomyces cerevisiae) (UniProt P36108).
Sequence of Vps2 MIM1 (Saccharomyces cerevisiae) (P36108 183-232): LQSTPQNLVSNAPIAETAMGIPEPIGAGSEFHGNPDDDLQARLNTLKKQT

Sequence of Did2 MIM1 (Saccharomyces cerevisiae) (P69771 176-204): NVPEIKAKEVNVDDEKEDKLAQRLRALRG
Sequence of Vps4 MIT (P52917 1-83): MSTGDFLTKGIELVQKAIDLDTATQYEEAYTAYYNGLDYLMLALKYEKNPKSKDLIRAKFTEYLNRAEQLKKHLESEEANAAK
Sequence of Ist1 NTD (P53843 1-193): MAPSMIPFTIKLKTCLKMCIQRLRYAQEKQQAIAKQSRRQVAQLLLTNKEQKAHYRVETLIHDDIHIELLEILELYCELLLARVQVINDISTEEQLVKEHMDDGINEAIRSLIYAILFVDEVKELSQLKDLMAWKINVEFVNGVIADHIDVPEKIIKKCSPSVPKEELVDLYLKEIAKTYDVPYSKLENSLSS

For orientation: Kd means the constant that tells how readily two partners part at equilibrium. As for Ist1 NTD (from UniProt P53843), the Kd in data set [1] is 1 µM. As for Vps4 MIT (from UniProt P52917), the Kd in data set [2] is 39 µM; in data set [3], 28 µM.
